Measured values: patent publication US20180258187A1 (Memorial Sloan Kettering, published 2018)

Target: EBV-LMP2 peptide presented by HLA-A*02:02 on artificial antigen presenting cells (human; Epstein-Barr virus)
Test: cell-based or functional assay

B1: LMP2-38×CD3 bispecific antibody (bispecific antibody)
chain: QSALTQPASVSGSPGQSITISCTGTSSDVGSYNDVSWYQQHPGKAPKLMIYDVSNRPSGVSNRFSGSKSGNTASLTISGLQTEDEADYYCNSYTSSNTYVFGTGTKVTVLGQVQLVQSGAEVKKPGASVQVSCRASGYTITSYYMHWVRQAPGQGLEWMGVINPNAGSTRYAQKFQGRVTMSTDTSTSTVYMALSSLRSDDTAVYYCARGMYRMYDWGQGTLVTVSSDVQLVQSGAEVKKPGASVKVSCKASGYTFTRYTMHWVRQAPGQGLEWIGYINPSRGYTNYADSVKGRFTITTDKSTSTAYMELSSLRSEDTATYYCARYYDDHYCLDYWGQGTTVTVSSGEGTSTGSGGSGGSGGADDIVLTQSPATLSLSPGERATLSCRASQSVSYMNWYQQKPGKAPKRWIYDTSKVASGVPARFSGSGSGTDYSLTINSLEAEDAATYYCQQWSSNPLTFGGGTKVEIKHHHHHH
With B1 the “EC50 (read off the curve), T cell cytotoxicity on peptide-pulsed aAPC expressing HLA-A*02:02” value was roughly 0.02 µg/mL.
